Tests used:
[1] = target: Full-length L. rhamnosus GG SpaB (GG-SpaBFL) protein (residues 33-205) (Lactobacillus rhamnosus GG); assay: BLI; conditions: group
[2] = target: Truncated GG-SpaB (GG-SpaB_(C-trun)) protein (residues 31-184) (Lactobacillus rhamnosus GG); assay: BLI; conditions: group
[3] = target: Full-length L. rhamnosus GG SpaB (GG-SpaBFL) protein (residues 33-205) (Lactobacillus rhamnosus GG); assay: BLI; GG-SpaB protein (10 uM) immobilised on aminopropylsilane (APS) biosensors; mucin Type II (~19.5-312 nM) as analyte; PBS (10 mM sodium phosphate pH 7.4, 137 mM NaCl, 2.7 mM KCl), 30 C; ~600 s association, ~900 s dissociation; 1:1 binding fit; in duplicate
[4] = target: Truncated L. rhamnosus GG SpaB (GG-SpaBC-trun) protein (residues 31-184) (Lactobacillus rhamnosus GG); assay: as above

| Kd [1] [nM] | Kd [2] [nM] | Kd [3] [nM] | koff [3] [s⁻¹] | kon [3] [M⁻¹ s⁻¹] | Kd [4] [nM] | koff [4] [s⁻¹] | kon [4] [M⁻¹ s⁻¹] | Substance |
| --- | --- | --- | --- | --- | --- | --- | --- | --- |
| 0.3 | 2.6 |  |  |  |  |  |  | porcine gastric mucin (Type II) |
|  |  | 0.306 | 1.09e-05 | 35300 | 2.55 | 6.86e-05 | 26300 | porcine gastric mucin (Type II) (Sigma-Aldrich) |

From publication PMC8244301
